# Results taken from patent publication US20130209454A1.
# Experiments:
# Assay in all cases: cell-based or functional assay
# [1] = biological target: HIV-1 Env of strain 0815.v3.c3 (HIV-1)
# [2] = biological target: HIV-1 Env of strain 3103.v3.c10 (HIV-1)
# [3] = biological target: HIV-1 Env of strain 3415.v1.c1 (HIV-1)
# [4] = biological target: HIV-1 Env of strain 6480.v4.c25 (HIV-1)
# [5] = biological target: HIV-1 Env of strain 6545.v4.cl (HIV-1)
# [6] = biological target: HIV-1 Env of strain 703357.C02 (HIV-1)
# [7] = biological target: HIV-1 Env of strain CNE58 (HIV-1)
# [8] = biological target: HIV-1 Env of strain Ce0682_E4 (HIV-1)
# [9] = biological target: HIV-1 Env of strain Ce703010054_2A2 (HIV-1)
# [10] = biological target: HIV-1 Env of strain Du172.17 (HIV-1)
# [11] = biological target: HIV-1 Env of strain Du422.1 (HIV-1)
# [12] = biological target: HIV-1 Env of strain HIV-16845-2.22 (HIV-1)
# [13] = biological target: HIV-1 Env of strain Q842.d12 (HIV-1)
# [14] = biological target: HIV-1 Env of strain QH0692.42 (HIV-1)
# [15] = biological target: HIV-1 Env of strain REJO4541.67 (HIV-1)
# [16] = biological target: HIV-1 Env of strain T250-4 (HIV-1)
# [17] = biological target: HIV-1 Env of strain THRO4156.18 (HIV-1)
# [18] = biological target: HIV-1 Env of strain TROJO4551.58 (HIV-1)
# [19] = biological target: HIV-1 Env of strain WEAU_d15_410_787 (HIV-1)
# [20] = biological target: HIV-1 Env of strain X2131_C1_B5 (HIV-1)
# [21] = biological target: HIV-1 Env of strain ZM214M.PL15 (HIV-1)
# [22] = biological target: HIV-1 Env of strain ZM247v1(Rev-) (HIV-1)
# [23] = biological target: HIV-1 strain 231965.c01 envelope (gp120) (HIV-1)
# [24] = biological target: HIV-1 strain 3016.v5.c45 envelope (gp120) (HIV-1)
# [25] = biological target: HIV-1 strain 3301.v1.c24 envelope (gp120) (HIV-1)
# [26] = biological target: HIV-1 strain 3415.v1.c1 envelope (gp120) (HIV-1)
# [27] = biological target: HIV-1 strain 3718.v3.c11 envelope (gp120) (HIV-1)
# [28] = biological target: HIV-1 strain 62357_14_D3_4589 envelope (gp120) (HIV-1)
# [29] = biological target: HIV-1 strain 6535.3 envelope (gp120) (HIV-1)
# [30] = biological target: HIV-1 strain 6545.v4.c1 envelope (gp120) (HIV-1)
# [31] = biological target: HIV-1 strain 6811.v7.c18 envelope (gp120) (HIV-1)
# [32] = biological target: HIV-1 strain 703357.C02 envelope (gp120) (HIV-1)
# [33] = biological target: HIV-1 strain 89-F1_2_25 envelope (gp120) (HIV-1)
# [34] = biological target: HIV-1 strain C2101.c01 envelope (gp120) (HIV-1)
# [35] = biological target: HIV-1 strain CAP45.2.00.G3 envelope (gp120) (HIV-1)
# [36] = biological target: HIV-1 strain CNE53 envelope (gp120) (HIV-1)
# [37] = biological target: HIV-1 strain CNE58 envelope (gp120) (HIV-1)
# [38] = biological target: HIV-1 strain Ce1176_A3 envelope (gp120) (HIV-1)
# [39] = biological target: HIV-1 strain P0402_c2_11 envelope (gp120) (HIV-1)
# [40] = biological target: HIV-1 strain QH0692.42 envelope (gp120) (HIV-1)
# [41] = biological target: HIV-1 strain T251-18 envelope (gp120) (HIV-1)
# [42] = biological target: HIV-1 strain T255-34 envelope (gp120) (HIV-1)
# [43] = biological target: HIV-1 strain T257-31 envelope (gp120) (HIV-1)
# [44] = biological target: HIV-1 strain TRO.11 envelope (gp120) (HIV-1)
# [45] = biological target: HIV-1 strain WEAU_d15_410_787 envelope (gp120) (HIV-1)
# [46] = biological target: HIV-1 strain ZM135M.PL10a envelope (gp120) (HIV-1)
# [47] = biological target: HIV-1 strain ZM197M.PB7 envelope (gp120) (HIV-1)
# [48] = biological target: HIV-1 strain ZM247v1(Rev-) envelope (gp120) (HIV-1)
# [49] = biological target: HIV-1 strain ZM249M.PL1 envelope (gp120) (HIV-1)
binder,measurement,setting,value
"NIH45-46^G54Y IgG (antibody, name in Kabat numbering, V domains shown) VH: QVRLSQSGGQMKKPGESMRLSCRASGYEFLNCPINWIRLAPGRRPEWMGWLKPRYGAVNYARKFQGRVTMTRDVYSDTAFLELRSLTSDDTAVYFCTRGKYCTARDYYNWDFEHWGRGAPVTVSS VL: EIVLTQSPATLSLSPGETAIISCRTSQSGSLAWYQQRPGQAPRLVIYSGSTRAAGIPDRFSGSRWGADYNLSISNLESGDFGVYYCQQYEFFGQGTKVQVDI",neutralization IC50,[1],< 0.001 µg/mL
same,neutralization IC50,[2],0.3 µg/mL
same,neutralization IC50,[3],< 0.001 µg/mL
same,neutralization IC50,[4],0.018 µg/mL
same,neutralization IC50,[5],> 50 µg/mL
same,neutralization IC50,[6],5.6 µg/mL
same,neutralization IC50,[7],0.04 µg/mL
same,neutralization IC50,[8],0.017 µg/mL
same,neutralization IC50,[9],0.022 µg/mL
same,neutralization IC50,[10],> 50 µg/mL
same,neutralization IC50,[11],> 50 µg/mL
same,neutralization IC50,[12],0.59 µg/mL
same,neutralization IC50,[13],0.015 µg/mL
same,neutralization IC50,[14],0.52 µg/mL
same,neutralization IC50,[15],0.007 µg/mL
same,neutralization IC50,[16],> 50 µg/mL
same,neutralization IC50,[17],0.66 µg/mL
same,neutralization IC50,[18],0.03 µg/mL
same,neutralization IC50,[19],0.002 µg/mL
same,neutralization IC50,[20],0.1 µg/mL
same,neutralization IC50,[21],0.06 µg/mL
same,neutralization IC50,[22],0.42 µg/mL
same,neutralization IC80,[23],0.054 µg/mL
same,neutralization IC80,[24],> 50 µg/mL
same,neutralization IC80,[25],0.014 µg/mL
same,neutralization IC80,[26],0.037 µg/mL
same,neutralization IC80,[27],3.85 µg/mL
same,neutralization IC80,[28],0.09 µg/mL
same,neutralization IC80,[29],0.24 µg/mL
same,neutralization IC80,[30],> 50 µg/mL
same,neutralization IC80,[31],0.059 µg/mL
same,neutralization IC80,[32],30.6 µg/mL
same,neutralization IC80,[33],> 50 µg/mL
same,neutralization IC80,[34],0.27 µg/mL
same,neutralization IC80,[35],> 50 µg/mL
same,neutralization IC80,[36],0.027 µg/mL
same,neutralization IC80,[37],0.11 µg/mL
same,neutralization IC80,[38],0.58 µg/mL
same,neutralization IC80,[39],0.049 µg/mL
same,neutralization IC80,[40],1.5 µg/mL
same,neutralization IC80,[41],1.16 µg/mL
same,neutralization IC80,[42],0.174 µg/mL
same,neutralization IC80,[43],0.67 µg/mL
same,neutralization IC80,[44],0.22 µg/mL
same,neutralization IC80,[45],0.008 µg/mL
same,neutralization IC80,[46],0.3 µg/mL
same,neutralization IC80,[47],0.21 µg/mL
same,neutralization IC80,[48],3.57 µg/mL
same,neutralization IC80,[49],0.011 µg/mL
"NIH45-46^G54W (antibody, V domains shown) VH: QVRLSQSGGQMKKPGESMRLSCRASGYEFLNCPINWIRLAPGRRPEWMGWLKPRWGAVNYARKFQGRVTMTRDVYSDTAFLELRSLTSDDTAVYFCTRGKYCTARDYYNWDFEHWGRGAPVTVSS VL: EIVLTQSPATLSLSPGETAIISCRTSQSGSLAWYQQRPGQAPRLVIYSGSTRAAGIPDRFSGSRWGADYNLSISNLESGDFGVYYCQQYEFFGQGTKVQVDI","IC50, pseudovirus neutralization",[1],0.001 µg/mL
same,"IC50, pseudovirus neutralization",[2],0.2 µg/mL
same,"IC50, pseudovirus neutralization",[3],0.001 µg/mL
same,"IC50, pseudovirus neutralization",[4],0.004 µg/mL
same,"IC50, pseudovirus neutralization",[7],0.02 µg/mL
same,"IC50, pseudovirus neutralization",[8],0.01 µg/mL
same,"IC50, pseudovirus neutralization",[9],0.027 µg/mL
same,"IC50, pseudovirus neutralization",[10],3.65 µg/mL
same,"IC50, pseudovirus neutralization",[11],> 50 µg/mL
same,"IC50, pseudovirus neutralization",[12],0.45 µg/mL
same,"IC50, pseudovirus neutralization",[13],0.005 µg/mL
same,"IC50, pseudovirus neutralization",[14],0.37 µg/mL
same,"IC50, pseudovirus neutralization",[15],0.002 µg/mL
same,"IC50, pseudovirus neutralization",[16],1.33 µg/mL
same,"IC50, pseudovirus neutralization",[17],0.54 µg/mL
same,"IC50, pseudovirus neutralization",[19],0.001 µg/mL
same,"IC50, pseudovirus neutralization",[20],0.05 µg/mL
same,"IC50, pseudovirus neutralization",[21],0.03 µg/mL
same,"IC50, pseudovirus neutralization",[22],0.32 µg/mL
"NIH45-46^G54W(HC), S28Y(LC) (antibody, V domains shown) VH: QVRLSQSGGQMKKPGESMRLSCRASGYEFLNCPINWIRLAPGRRPEWMGWLKPRWGAVNYARKFQGRVTMTRDVYSDTAFLELRSLTSDDTAVYFCTRGKYCTARDYYNWDFEHWGRGAPVTVSS VL: EIVLTQSPATLSLSPGETAIISCRTSQYGSLAWYQQRPGQAPRLVIYSGSTRAAGIPDRFSGSRWGADYNLSISNLESGDFGVYYCQQYEFFGQGTKVQVDI","IC50, pseudovirus neutralization",[1],0.001 µg/mL
same,"IC50, pseudovirus neutralization",[2],0.181 µg/mL
same,"IC50, pseudovirus neutralization",[3],0.013 µg/mL
same,"IC50, pseudovirus neutralization",[4],0.016 µg/mL
same,"IC50, pseudovirus neutralization",[7],0.016 µg/mL
same,"IC50, pseudovirus neutralization",[8],0.007 µg/mL
same,"IC50, pseudovirus neutralization",[9],0.016 µg/mL
same,"IC50, pseudovirus neutralization",[10],0.015 µg/mL
same,"IC50, pseudovirus neutralization",[11],8.47 µg/mL
same,"IC50, pseudovirus neutralization",[12],0.38 µg/mL
same,"IC50, pseudovirus neutralization",[13],0.001 µg/mL
same,"IC50, pseudovirus neutralization",[14],0.216 µg/mL
same,"IC50, pseudovirus neutralization",[15],0.001 µg/mL
same,"IC50, pseudovirus neutralization",[16],1.55 µg/mL
same,"IC50, pseudovirus neutralization",[17],0.685 µg/mL
same,"IC50, pseudovirus neutralization",[19],0.008 µg/mL
same,"IC50, pseudovirus neutralization",[20],0.031 µg/mL
same,"IC50, pseudovirus neutralization",[21],0.036 µg/mL
same,"IC50, pseudovirus neutralization",[22],0.001 µg/mL
